The text below walks through data of FireProtDB.

B1: Superoxide dismutase [Mn], mitochondrial, P04179 (parent)
chain: MLSRAVCGTSRQLAPVLGYLGSRQKHSLPDLPYDYGALEPHINAQIMQLHHSKHHAAYVNNLNVTEEKYQEALAKGDVTAQIALQPALKFNGGGHINHSIFWTNLSPNGGGEPKGELLEAIKRDFGSFDKFKEKLTAASVGVQGSGWGWLGFNKERGHLQIAACPNQDPLQGTTGLIPLLGIDVWEHAYYLQYKNVRPDYLKAIWNVINWENVTERYMACKK
B2: Citrate synthase, mitochondrial, P00889 (parent)
chain: MALLTAAARLFGAKNASCLVLAARHASASSTNLKDILADLIPKEQARIKTFRQQHGNTVVGQITVDMMYGGMRGMKGLVYETSVLDPDEGIRFRGYSIPECQKMLPKAKGGEEPLPEGLFWLLVTGQIPTEEQVSWLSKEWAKRAALPSHVVTMLDNFPTNLHPMSQLSAAITALNSESNFARAYAEGIHRTKYWELIYEDCMDLIAKLPCVAAKIYRNLYREGSSIGAIDSKLDWSHNFTNMLGYTDAQFTELMRLYLTIHSDHEGGNVSAHTSHLVGSALSDPYLSFAAAMNGLAGPLHGLANQEVLVWLTQLQKEVGKDVSDEKLRDYIWNTLNSGRVVPGYGHAVLRKTDPRYTCQREFALKHLPHDPMFKLVAQLYKIVPNVLLEQGKAKNPWPNVDAHSGVLLQYYGMTEMNYYTVLFGVSRALGVLAQLIWSRALGFPLERPKSMSTDGLIKLVDSK
B3: Tryptophan synthase alpha chain, P0A877 (parent)
chain: MERYESLFAQLKERKEGAFVPFVTLGDPGIEQSLKIIDTLIEAGADALELGIPFSDPLADGPTIQNATLRAFAAGVTPAQCFEMLALIRQKHPTIPIGLLMYANLVFNKGIDEFYAQCEKVGVDSVLVADVPVEESAPFRQAALRHNVAPIFICPPNADDDLLRQIASYGRGYTYLLSRAGVTGAENRAALPLNHLVAKLKEYNAAPPLQGFGISAPDQVKAAIDAGAAGAISGSAIVKIIEQHINEPEKMLAALKVFVQPMKAATRS

One series covers variants of B1. The conditions noted are these: Homo sapiens; pH 7.8; 70 °C; Thermal; DSC; Potassium phosphate 2 mM; reversible: yes; structure 1N0J; whole UniProt chain shown.
In the case of MLSRAVCGTSRQLAPVLGYLGSRQKHSLPDLPYDYGALEPHINAQIMQLHHSKHHAAYVNNLNVTEEKYQEALAKGDVTAQTALQPALKFNGGGHINHSIFWTNLSPNGGGEPKGELLEAIKRDFGSFDKFKEKLTAASVGVQGSGWGWLGFNKERGHLQIAACPNQDPLQGTTGLIPLLGIDVWEHAYYLQYKNVRPDYLKAIWNVINWENVTERYMACKK [I82T], the “ddG of mutation (higher = less stable)” value was 2.7 kcal/mol.

Still in this series, the particulars now being: Homo sapiens; pH 7.8; Thermal; DSC; Potassium phosphate 2 mM; reversible: yes; structure 1N0J; whole UniProt chain shown.
Regarding MLSRAVCGTSRQLAPVLGYLGSRQKHSLPDLPYDYGALEPHINAQIMQLHHSKHHAAYVNNLNVTEEKYQEALAKGDVTAQTALQPALKFNGGGHINHSIFWTNLSPNGGGEPKGELLEAIKRDFGSFDKFKEKLTAASVGVQGSGWGWLGFNKERGHLQIAACPNQDPLQGTTGLIPLLGIDVWEHAYYLQYKNVRPDYLKAIWNVINWENVTERYMACKK [I82T], the Tm amounted to 56.4 °C; the “change of melting temperature, mutant - wild type (higher = more stable)” value (“change of melting temperature, mutant” below) was -13.6 °C; the “unfolding enthalpy (calorimetric)” value is 64.9 kcal/mol.

The variants in a further series derive from B2. The conditions noted are these: Sus scrofa; pH 7.5; Thermal; CD; Tris-HCl 5.0 mM; reversible: yes; structure 1CTS; whole UniProt chain shown.
For the variant MALLTAAARLFGAKNASCLVLAARHASASSTNLKDILADLIPKEQARIKTFRQQHGNTVVGQITVDMMYGGMRGMKGLVYETSVLDPDEGIRFRGYSIPECQKMLPKAKGGEEPLPEGLFWLLVTGQIPTEEQVSWLSKEWAKRAALPSHVVTMLDNFPTNLHPMSQLSAAITALNSESNFARAYAEGIHRTKYWELIYEDCMDLIAKLPCVAAKIYRNLYREGSSIGAIDSKLDWSHNFTNMLGYTDAQFTELMRLYLTIHSDHEGGNVSAHTSHLVGSALSDPYLSFAAAMNGLAGPLHGLANQEVLVWLTQLQKEVGKDVSDEKLRDYIWNTLNSGRVVPGYGHAVLRKTDPRYTCQREFALKHLPHDPMFKLVAQLYKIVPNVLLEQGKAKNPWPNVQAHSGVLLQYYGMTEMNYYTVLFGVSRALGVLAQLIWSRALGFPLERPKSMSTDGLIKLVDSK [D402Q], the Tm stood at 69 °C and the “change of melting temperature, mutant” value was 11.1 °C.

In the case of MALLTAAARLFGAKNASCLVLAARHASASSTNLKDILADLIPKEQARIKTFRQQHGNTVVGQITVDMMYGGMRGMKGLVYETSVLDPDEGIRFRGYSIPECQKMLPKAKGGEEPLPEGLFWLLVTGQIPTEEQVSWLSKEWAKRAALPSHVVTMLDNFPTNLHPMSQLSAAITALNSESNFARAYAEGIHRTKYWELIYEDCMDLIAKLPCVAAKIYRNLYREGSSIGAIDSKLDWSHNFTNMLGYTDAQFTELMRLYLTIHSDHEGGNVSAHTSHLVGSALSDPYLSFAAAMNGLAGPLHGLANQEVLVWLTQLQKEVGKDVSDEKLRDYIWNTLNSGRVVPGYGHAVLRKTDPRYTCQREFALKHLPHDPMFKLVAQLYKIVPNVLLEQGKAKNPWPNVGAHSGVLLQYYGMTEMNYYTVLFGVSRALGVLAQLIWSRALGFPLERPKSMSTDGLIKLVDSK [D402G], the Tm was 62.5 °C and the “change of melting temperature, mutant” value amounted to 4.6 °C.

For the variant MALLTAAARLFGAKNASCLVLAARHASASSTNLKDILADLIPKEQARIKTFRQQHGNTVVGQITVDMMYGGMRGMKGLVYETSVLDPDEGIRFRGYSIPECQKMLPKAKGGEEPLPEGLFWLLVTGQIPTEEQVSWLSKEWAKRAALPSHVVTMLDNFPTNLHPMSQLSAAITALNSESNFARAYAEGIHRTKYWELIYEDCMDLIAKLPCVAAKIYRNLYREGSSIGAIDSKLDWSHNFTNMLGYTDAQFTELMRLYLTIHSDHEGGNVSAHTSHLVGSALSDPYLSFAAAMNGLAGPLRGLANQEVLVWLTQLQKEVGKDVSDEKLRDYIWNTLNSGRVVPGYGHAVLRKTDPRYTCQREFALKHLPHDPMFKLVAQLYKIVPNVLLEQGKAKNPWPNVDAHSGVLLQYYGMTEMNYYTVLFGVSRALGVLAQLIWSRALGFPLERPKSMSTDGLIKLVDSK [H301R], the Tm is 56.8 °C and the “change of melting temperature, mutant” value is -1.1 °C.

On to MALLTAAARLFGAKNASCLVLAARHASASSTNLKDILADLIPKEQARIKTFRQQHGNTVVGQITVDMMYGGMRGMKGLVYETSVLDPDEGIRFRGYSIPECQKMLPKAKGGEEPLPEGLFWLLVTGQIPTEEQVSWLSKEWAKRAALPSHVVTMLDNFPTNLHPMSQLSAAITALNSESNFARAYAEGIHRTKYWELIYEDCMDLIAKLPCVAAKIYRNLYREGSSIGAIDSKLDWSHNFTNMLGYTDAQFTELMRLYLTIHSDHEGGNVSAHTSHLVGSALSDPYLSFAAAMNGLAGPLGGLANQEVLVWLTQLQKEVGKDVSDEKLRDYIWNTLNSGRVVPGYGHAVLRKTDPRYTCQREFALKHLPHDPMFKLVAQLYKIVPNVLLEQGKAKNPWPNVDAHSGVLLQYYGMTEMNYYTVLFGVSRALGVLAQLIWSRALGFPLERPKSMSTDGLIKLVDSK [H301G], for which the Tm worked out at 56 °C and the “change of melting temperature, mutant” value was -1.9 °C.

Another series covers variants of B3. The conditions noted are these: Escherichia coli (strain K12); pH 7; 25 °C; Thermal; DSC; tetra-borate 1 mM; reversible: yes(70-95%); structure 1WQ5; whole UniProt chain shown.
For MERYESLFAQLKERKEGAFVPFVTLGDPGIEQSLKIIDTLIEAGADALQLGIPFSDPLADGPTIQNATLRAFAAGVTPAQCFEMLALIRQKHPTIPIGLLMYANLVFNKGIDEFYAQCEKVGVDSVLVADVPVEESAPFRQAALRHNVAPIFICPPNADDDLLRQIASYGRGYTYLLSRAGVTGAENRAALPLNHLVAKLKEYNAAPPLQGFGISAPDQVKAAIDAGAAGAISGSAIVKIIEQHINEPEKMLAALKVFVQPMKAATRS [E49Q], the “unfolding enthalpy (calorimetric)” value is 23.2 kcal/mol and the unfolding free energy was determined as 7.4 kcal/mol.

Staying with this series, now noted: Escherichia coli (strain K12); pH 7; 25.8 °C; GdnHCl; CD; Potassium phosphate 0.01 M; reversible: yes; structure 1WQ5; whole UniProt chain shown.
Consider MERYESLFAQLKERKEGAFVPFVTLGDPGIEQSLKIIDTLIEAGADALQLGIPFSDPLADGPTIQNATLRAFAAGVTPAQCFEMLALIRQKHPTIPIGLLMYANLVFNKGIDEFYAQCEKVGVDSVLVADVPVEESAPFRQAALRHNVAPIFICPPNADDDLLRQIASYGRGYTYLLSRAGVTGAENRAALPLNHLVAKLKEYNAAPPLQGFGISAPDQVKAAIDAGAAGAISGSAIVKIIEQHINEPEKMLAALKVFVQPMKAATRS [E49Q], for which the “ddG of mutation (higher = less stable)” value stood at 2.5 kcal/mol and the unfolding free energy was 6.3 kcal/mol.

The same series, now with this note: Escherichia coli (strain K12); pH 7; Thermal; DSC; tetra-borate 1 mM; reversible: yes(70-95%); structure 1WQ5; whole UniProt chain shown.
Turning to MERYESLFAQLKERKEGAFVPFVTLGDPGIEQSLKIIDTLIEAGADALQLGIPFSDPLADGPTIQNATLRAFAAGVTPAQCFEMLALIRQKHPTIPIGLLMYANLVFNKGIDEFYAQCEKVGVDSVLVADVPVEESAPFRQAALRHNVAPIFICPPNADDDLLRQIASYGRGYTYLLSRAGVTGAENRAALPLNHLVAKLKEYNAAPPLQGFGISAPDQVKAAIDAGAAGAISGSAIVKIIEQHINEPEKMLAALKVFVQPMKAATRS [E49Q], the midpoint of thermal melting (Tm) turned out to be 59.4 °C and the “heat capacity change of unfolding” value is 2.87 kcal/mol/K.

Staying with this series, now noted: Escherichia coli (strain K12); pH 7.2; 25 °C; Thermal; CD; tetra-borate 1 mM; reversible: yes(70-95%); structure 1WQ5; whole UniProt chain shown.
Regarding MERYESLFAQLKERKEGAFVPFVTLGDPGIEQSLKIIDTLIEAGADALQLGIPFSDPLADGPTIQNATLRAFAAGVTPAQCFEMLALIRQKHPTIPIGLLMYANLVFNKGIDEFYAQCEKVGVDSVLVADVPVEESAPFRQAALRHNVAPIFICPPNADDDLLRQIASYGRGYTYLLSRAGVTGAENRAALPLNHLVAKLKEYNAAPPLQGFGISAPDQVKAAIDAGAAGAISGSAIVKIIEQHINEPEKMLAALKVFVQPMKAATRS [E49Q], the unfolding free energy came out at 6.1 kcal/mol.

The same series, now with this note: Escherichia coli (strain K12); pH 7.2; Thermal; CD; tetra-borate 1 mM; reversible: yes(70-95%); structure 1WQ5; whole UniProt chain shown.
Turning to MERYESLFAQLKERKEGAFVPFVTLGDPGIEQSLKIIDTLIEAGADALQLGIPFSDPLADGPTIQNATLRAFAAGVTPAQCFEMLALIRQKHPTIPIGLLMYANLVFNKGIDEFYAQCEKVGVDSVLVADVPVEESAPFRQAALRHNVAPIFICPPNADDDLLRQIASYGRGYTYLLSRAGVTGAENRAALPLNHLVAKLKEYNAAPPLQGFGISAPDQVKAAIDAGAAGAISGSAIVKIIEQHINEPEKMLAALKVFVQPMKAATRS [E49Q], the melting temperature (Tm) came out at 59.6 °C, the “heat capacity change of unfolding” value turned out to be 2.68 kcal/mol/K and the “unfolding enthalpy (van 't Hoff)” value is 14.3 kcal/mol.

Still in this series, the particulars now being: Escherichia coli (strain K12); pH 9.3; Thermal; CD; tetra-borate 1 mM; reversible: yes(70-95%); structure 1WQ5; whole UniProt chain shown.
On to MERYESLFAQLKERKEGAFVPFVTLGDPGIEQSLKIIDTLIEAGADALQLGIPFSDPLADGPTIQNATLRAFAAGVTPAQCFEMLALIRQKHPTIPIGLLMYANLVFNKGIDEFYAQCEKVGVDSVLVADVPVEESAPFRQAALRHNVAPIFICPPNADDDLLRQIASYGRGYTYLLSRAGVTGAENRAALPLNHLVAKLKEYNAAPPLQGFGISAPDQVKAAIDAGAAGAISGSAIVKIIEQHINEPEKMLAALKVFVQPMKAATRS [E49Q], for which the midpoint of thermal melting (Tm) was 59.6 °C, the “heat capacity change of unfolding” value is 2.68 kcal/mol/K and the “unfolding enthalpy (van 't Hoff)” value came out at 14.3 kcal/mol.

Staying with this series, now noted: Escherichia coli (strain K12); pH 9.3; Thermal; DSC; tetra-borate 1 mM; reversible: yes(70-95%); structure 1WQ5; whole UniProt chain shown.
Turning to MERYESLFAQLKERKEGAFVPFVTLGDPGIEQSLKIIDTLIEAGADALQLGIPFSDPLADGPTIQNATLRAFAAGVTPAQCFEMLALIRQKHPTIPIGLLMYANLVFNKGIDEFYAQCEKVGVDSVLVADVPVEESAPFRQAALRHNVAPIFICPPNADDDLLRQIASYGRGYTYLLSRAGVTGAENRAALPLNHLVAKLKEYNAAPPLQGFGISAPDQVKAAIDAGAAGAISGSAIVKIIEQHINEPEKMLAALKVFVQPMKAATRS [E49Q], the melting temperature (Tm) worked out at 62.4 °C and the “heat capacity change of unfolding” value worked out at 2.87 kcal/mol/K.

Broadly, the Tm is the temperature at which the thermal transition is half complete.
